We go through three proteins from PMC9750922, “Improvement of thermoalkaliphilic laccase (CtLac) by a directed evolution and application to lignin degradation” (Applied Microbiology and Biotechnology, 2022).

To fix the notation:
B1: CtLac (Caldalkalibacillus thermarum TA2.A1) (protein)
chain: MKRILTLVLLLTVFIIVLVGCSTSPVDHSKMVHGEDDSTDNKQQEETQQIETSEGKVVINLEAKVTHWMFNNDLMEDIWTYNGSLPGQEIRVQEGDHVVINLTNSLDVPTSLHLHGVPVPNEMDGVPGVTQNAIMPGETFTYEFVADTPGTYWYHSHQDGANQIGMGLYGALVVEHKDQPDYDLDQVIMIDEWSSMGMADMDHSGMDHGDHGNMGDNSDQPPHAEMMNMMYDTLIVNGKASPVIEAIGVSEDDTIKLRFVNTGLFTQVITIPGHEFKVTHYDGQQVNEPELISDTAIRIAPAERYDVEIEMNQPGAWGIQIYAEENENLRGIVPLVYAGFEDEELQTADSIQSFLDISAYGSPMNVNFGEITKEFDMILGSDDGGETFTINGKQMTTKGFESHEDHEIYEVEEGDVVKVNIVNDTDVDHPMHLHGHFFYVVSRNGQPVKGSPILKETLNVRPNEAYEIVFVADNPGHWMFHCHELHHASGGMVSEVRYSGYTPAFTPDPNIPNKPE
notes: 516 aa, full-length gene incl; N-terminal region in pET28a(+) (NdeI/XhoI), His-tagged, E. coli BL21(DE3), HisTrap purified; primers encode N-terminus MKRILTLVL and C-terminus IPNKPE
B2: CtLac (Caldalkalibacillus thermarum TA2.A1; V243M) (protein)
chain: B1 chain with V243M
notes: as for B1
B3: CtLac (Caldalkalibacillus thermarum TA2.A1; V243D) (protein)
chain: B1 chain with V243D
notes: as for B1

Positions count from the first letter of the chain named. Numbers in names are those of the source.

Substrate in this data set: COc1cccc(OC)c1O
The data set is described as follows: purified protein. The format is biochemical, Caldalkalibacillus thermarum. The settings on record: 25 °C, pH 8.0, citrate phosphate buffer 50 mM, 1 mM CuCl2, air O2.
For orientation: Km means the concentration of substrate that gives half-maximal velocity. The term kcat denotes the maximal rate divided by the concentration of active sites. By kcat/Km is commonly meant the turnover number divided by the Michaelis constant. For B1, the Km is 157.2 µM, the kcat stood at 1.1 s⁻¹ and the kcat/Km is 7000 M⁻¹ s⁻¹.

B2: the Km came to 674.2 µM, the kcat came out at 0.1 s⁻¹ and the kcat/Km was found to be 100 M⁻¹ s⁻¹.

Consider B3, for which the Km was determined as 137.2 µM, the kcat came out at 2.7 s⁻¹ and the kcat/Km was 20000 M⁻¹ s⁻¹.
